Experimental data reported in patent US20260201032A1 (UNIVERSITAT DE BARCELONA, published 2026).

Target: T1, CD229 hDI/DIII/DIV mDII (human; mouse, UniProt Q9HBG7 48-158; Q01965 159-249; Q9HBG7 251-655, limits assumed)
T1 construct: domain: DI;domain: DII;domain: DIII/DIV; Expressed on transiently transfected COS cells; also called chimeric mouse human molecule where the second Ig domain of Ly9 was substituted the corresponding mouse domain
T1 sequence (looked up): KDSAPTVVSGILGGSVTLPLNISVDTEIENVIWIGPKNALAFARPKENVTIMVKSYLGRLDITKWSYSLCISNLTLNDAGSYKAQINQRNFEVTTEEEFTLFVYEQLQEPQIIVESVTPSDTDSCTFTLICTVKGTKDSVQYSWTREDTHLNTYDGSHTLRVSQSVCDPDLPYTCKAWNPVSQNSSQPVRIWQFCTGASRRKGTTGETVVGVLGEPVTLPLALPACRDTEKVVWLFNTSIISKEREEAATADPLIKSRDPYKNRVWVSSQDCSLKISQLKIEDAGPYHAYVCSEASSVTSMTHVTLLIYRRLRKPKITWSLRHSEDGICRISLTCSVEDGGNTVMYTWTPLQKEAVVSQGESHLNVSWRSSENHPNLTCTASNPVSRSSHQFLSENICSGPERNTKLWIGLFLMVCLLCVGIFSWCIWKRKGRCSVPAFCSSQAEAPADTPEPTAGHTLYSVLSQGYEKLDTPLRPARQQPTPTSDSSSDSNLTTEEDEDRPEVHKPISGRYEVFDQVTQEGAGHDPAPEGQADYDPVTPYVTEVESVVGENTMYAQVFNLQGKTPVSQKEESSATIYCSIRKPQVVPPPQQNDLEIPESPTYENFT
Test: flow cytometry on transiently transfected COS cells
Source text: The mapping to the first or second domain was done as described in Romero et al 2005. Three different human Ly9 constructs were used: full-length human Ly9, a Ly9 isoform that […] and a chimeric mouse human molecule where the second Ig domain of Ly9 was substituted the corresponding mouse domain. The transfected cells were stained with different anti-human antibodies using flow cytometry.
^aCOS cells were transiently transfected with chimeric human (h)/mouse (m) constructs or the isoform lacking the first V-like Ig domain (CD229 ΔDI) described in Materials and Methods. CD229 mAbs were assayed by flow cytometry: +, Detection of protein expression, −, nondetection of protein expression. ^bDomain recognized by the mAb.

binding result: no binding
B1: HLy9.1.84 (antibody, V domains shown)
VH: QMQLQESGPELVKPGASVKISCKASGYTFTHYYINWVQQRPGQGLEWIGWIFPESGSTYYSEKFKAKATLTVDKSSSTAYMLLSSLTSEDSAVYFCARGTGFFDYWGQGTTLTVSS
VL: QIVLTQSPAIMSASPGEKVTVTCSASSSVSYMFWYQQKPGFSPRLLIYDTSNLASGVPVRFSGSGSGTSYSLTISRMEAEDAATYYCQQWSSYPPTFGGGTKLEIK
notes: also called HLy91.184
